According to US20190030123A1:

How the values were obtained:
[1] = molecular target: HIS-tagged neonatal Fc receptor (FcRn, No. CT009-H08H from Sino Biological Inc) (UniProt P55899); assay: BLI (Octet RED 96), His-FcRn on Ni-NTA biosensor, aflibercept as analyte, pH 6.0; formulation (b), stored 3 months at 40 C/75% relative humidity
[2] = molecular target: HIS-tagged neonatal Fc receptor (FcRn, No. CT009-H08H from Sino Biological Inc) (UniProt P55899); assay: BLI (Octet RED 96), His-FcRn on Ni-NTA biosensor, aflibercept as analyte, pH 6.0; formulation (c), stored 3 months at 5 C
[3] = molecular target: HIS-tagged neonatal Fc receptor (FcRn, No. CT009-H08H from Sino Biological Inc) (UniProt P55899); assay: BLI (Octet RED 96), His-FcRn on Ni-NTA biosensor, aflibercept as analyte, pH 6.0; formulation (b), stored 3 months at 5 C
[4] = molecular target: HIS-tagged neonatal Fc receptor (FcRn, No. CT009-H08H from Sino Biological Inc) (UniProt P55899); assay: BLI (Octet RED 96), His-FcRn on Ni-NTA biosensor, aflibercept as analyte, pH 6.0; sample (d) Eylea, stored 3 months at 5 C
[5] = molecular target: HIS-tagged neonatal Fc receptor (FcRn, No. CT009-H08H from Sino Biological Inc) (UniProt P55899); assay: BLI (Octet RED 96), His-FcRn on Ni-NTA biosensor, aflibercept as analyte, pH 6.0; formulation (c), starting material T0
[6] = molecular target: HIS-tagged neonatal Fc receptor (FcRn, No. CT009-H08H from Sino Biological Inc) (UniProt P55899); assay: BLI (Octet RED 96), His-FcRn on Ni-NTA biosensor, aflibercept as analyte, pH 6.0; sample (d) Eylea, starting material T0
[7] = molecular target: HIS-tagged neonatal Fc receptor (FcRn, No. CT009-H08H from Sino Biological Inc) (UniProt P55899); assay: BLI (Octet RED 96), His-FcRn on Ni-NTA biosensor, aflibercept as analyte, pH 6.0; formulation (a), starting material T0
[8] = molecular target: HIS-tagged neonatal Fc receptor (FcRn, No. CT009-H08H from Sino Biological Inc) (UniProt P55899); assay: BLI (Octet RED 96), His-FcRn on Ni-NTA biosensor, aflibercept as analyte, pH 6.0; formulation (a), stored 3 months at 40 C/75% relative humidity
[9] = molecular target: HIS-tagged neonatal Fc receptor (FcRn, No. CT009-H08H from Sino Biological Inc) (UniProt P55899); assay: BLI (Octet RED 96), His-FcRn on Ni-NTA biosensor, aflibercept as analyte, pH 6.0; sample (d) Eylea, stored 3 months at 40 C/75% relative humidity
[10] = molecular target: HIS-tagged neonatal Fc receptor (FcRn, No. CT009-H08H from Sino Biological Inc) (UniProt P55899); assay: BLI (Octet RED 96), His-FcRn on Ni-NTA biosensor, aflibercept as analyte, pH 6.0; formulation (b), starting material T0
[11] = molecular target: HIS-tagged neonatal Fc receptor (FcRn, No. CT009-H08H from Sino Biological Inc) (UniProt P55899); assay: BLI (Octet RED 96), His-FcRn on Ni-NTA biosensor, aflibercept as analyte, pH 6.0; formulation (c), stored 3 months at 40 C/75% relative humidity
[12] = molecular target: HIS-tagged neonatal Fc receptor (FcRn, No. CT009-H08H from Sino Biological Inc) (UniProt P55899); assay: BLI (Octet RED 96), His-FcRn on Ni-NTA biosensor, aflibercept as analyte, pH 6.0; formulation (a), stored 3 months at 5 C

Chain of HIS-tagged neonatal Fc receptor (FcRn, No. CT009-H08H from Sino Biological Inc) (P55899 24-297 limits assumed, chain 1 of 2): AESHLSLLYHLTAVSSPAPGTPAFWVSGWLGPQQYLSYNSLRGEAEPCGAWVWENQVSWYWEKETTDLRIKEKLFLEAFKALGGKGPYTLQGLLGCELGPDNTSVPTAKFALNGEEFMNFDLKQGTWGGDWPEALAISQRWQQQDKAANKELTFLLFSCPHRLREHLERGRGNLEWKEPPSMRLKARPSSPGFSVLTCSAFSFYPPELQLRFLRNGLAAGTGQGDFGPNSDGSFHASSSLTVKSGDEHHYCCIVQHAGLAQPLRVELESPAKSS
Chain of HIS-tagged neonatal Fc receptor (FcRn, No. CT009-H08H from Sino Biological Inc) (chain, as listed by the source H08H H08H limits assumed, chain 2 of 2): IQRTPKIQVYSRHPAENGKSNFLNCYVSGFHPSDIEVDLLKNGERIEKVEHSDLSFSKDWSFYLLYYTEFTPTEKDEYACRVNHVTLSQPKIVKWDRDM

Substance “aflibercept (from UniProt P17948 129-230; P35968 225-327) (Fc fusion)” has a Kd [1] of 0.0591 nM, a koff [1] of 2.86e-05 s⁻¹ and a kon [1] of 483000 M⁻¹ s⁻¹. It also gave a Kd [2] of 0.103 nM, a koff [2] of 6.28e-05 s⁻¹ and a kon [2] of 610000 M⁻¹ s⁻¹. It also gave a Kd [3] of 0.0923 nM, a koff [3] of 5.71e-05 s⁻¹ and a kon [3] of 619000 M⁻¹ s⁻¹. It also gave a Kd [4] of 0.0968 nM, a koff [4] of 6.11e-05 s⁻¹ and a kon [4] of 631000 M⁻¹ s⁻¹. For the same substance, the Kd [5] was 0.107 nM, the koff [5] was 6.44e-05 s⁻¹ and the kon [5] was 605000 M⁻¹ s⁻¹. It also gave a Kd [6] of 0.0993 nM, a koff [6] of 5.56e-05 s⁻¹ and a kon [6] of 560000 M⁻¹ s⁻¹. It also gave a Kd [7] of 0.118 nM, a koff [7] of 6.56e-05 s⁻¹ and a kon [7] of 556000 M⁻¹ s⁻¹. The Kd [8] was 0.0905 nM, the koff [8] was 4.11e-05 s⁻¹ and the kon [8] was 454000 M⁻¹ s⁻¹. The Kd [9] was 0.0609 nM, the koff [9] was 3e-05 s⁻¹ and the kon [9] was 493000 M⁻¹ s⁻¹. It also gave a koff [10] of 6.47e-05 s⁻¹, a kon [10] of 613000 M⁻¹ s⁻¹ and a Kd [11] of 0.0591 nM. For the same substance, the koff [11] was 2.71e-05 s⁻¹, the kon [11] was 459000 M⁻¹ s⁻¹ and the Kd [12] was 0.098 nM. For the same substance, the koff [12] was 5.84e-05 s⁻¹ and the kon [12] was 596000 M⁻¹ s⁻¹.
